Assays:
[1] = biological target: HLA-A*02:01; experiment: IEDB peptide-MHC binding, purified MHC/competitive/fluorescence; ≥ and ≤ were set here for values at or beyond the usual limits of such assays
[2] = biological target: HLA-A*30:02; experiment: IEDB peptide-MHC binding, purified MHC/competitive/radioactivity; filed as Kd, often an IC50 or EC50 that approximates it; ≥ and ≤ were set here for values at or beyond the usual limits of such assays
[3] = biological target: HLA-A*02:01; experiment: IEDB peptide-MHC binding, purified MHC/direct/fluorescence; filed as Kd, often an IC50 or EC50 that approximates it; ≥ and ≤ were set here for values at or beyond the usual limits of such assays
[4] = biological target: HLA-A*69:01; experiment: as above
[5] = biological target: HLA-A*02:01; experiment: IEDB peptide-MHC binding, purified MHC/competitive/fluorescence; filed as Kd, often an IC50 or EC50 that approximates it; ≥ and ≤ were set here for values at or beyond the usual limits of such assays; details: source organism: Lassa virus Josiah
[6] = biological target: HLA-A*02:06; experiment: IEDB peptide-MHC binding, purified MHC/competitive/radioactivity; filed as Kd, often an IC50 or EC50 that approximates it; ≥ and ≤ were set here for values at or beyond the usual limits of such assays
[7] = biological target: HLA-A*02:03; experiment: as above
[8] = biological target: HLA-A*02:02; experiment: as above
[9] = biological target: HLA-A*24:02; experiment: as above
[10] = biological target: HLA-A*26:01; experiment: as above; details: source organism: Mammarenavirus choriomeningitidis
[11] = biological target: HLA-A*01:01; experiment: as above; details: source organism: Mammarenavirus choriomeningitidis
[12] = biological target: HLA-A*23:01; experiment: as above; details: source organism: Dengue virus 2 Jamaica/1409/1983
[13] = source organism: Vaccinia virus WR
[14] = source organism: Pseudomonas aeruginosa
[15] = source organism: SARS coronavirus Tor2
[16] = source organism: Giardia lamblia ATCC 50803
[17] = source organism: Mammarenavirus machupoense
[18] = source organism: Mammarenavirus brazilense

| Sequence | Kd [6, 13] [nM] | Kd [7, 13] [nM] | Kd [8, 13] [nM] | further results |
| --- | --- | --- | --- | --- |
| LIGIEILNT |  |  |  | IC50 [1, 13]: ≥ 147000 nM |
| KLTLKGMSY |  |  |  | Kd ([2]; source organism: Dengue virus 1 Singapore/S275/1990): 521 nM |
| RILGPDCCI |  |  |  | IC50 ([1]; source organism: Sudan ebolavirus): 64000 nM |
| YTYPDSLEE |  |  |  | IC50 ([1]; source organism: Zaire ebolavirus): ≥ 264000 nM |
| ACMDGFEVV |  |  |  | Kd [3, 14]: 290 nM; Kd [4, 14]: 2700 nM |
| CMLDGGNML |  |  |  | Kd ([4]; source organism: Mammarenavirus lassaense): ≥ 20000 nM; Kd [5]: 2.97 nM |
| LIDFYLCFL |  |  |  | Kd [6, 15]: 10.9 nM; Kd [7, 15]: 61 nM; Kd [8, 15]: 8.31 nM |
| TIVSRSSRGV | 3740 | 11.1 | 4700 |  |
| TWRDMAHTLI |  |  |  | Kd ([9]; source organism: Dengue virus 3 Martinique/1243/1999): 387 nM |
| IYKAPSENW |  |  |  | Kd ([9]; source organism: Homo sapiens): 39 nM |
| ITHTNITTLL | 14800 | 101 | 1690 |  |
| QIGDIIIAV |  |  |  | IC50 ([1]; source organism: Variola virus): 293 nM |
| FMYEDALKS |  |  |  | Kd [3, 16]: 43.5 nM; Kd [4, 16]: 1360 nM |
| LNKSDSSWAV |  |  |  | Kd [6, 17]: 2190 nM; Kd [7, 17]: 5250 nM; Kd [8, 17]: 550 nM |
| ETIQKDINIT | 112 | 10.1 | 354 |  |
| KAALSEGVY |  |  |  | Kd ([2]; source organism: Dengue virus 4 Dominica/814669/1981): 15 nM |
| DTMRIYCSL | 2920 | 5460 | 5840 |  |
| PDLKTIHNIL |  |  |  | Kd [10]: ≥ 69700 nM; Kd [11]: ≥ 70400 nM; Kd ([2]; source organism: Mammarenavirus choriomeningitidis): 10300 nM |
| IAEYIAGLKI | 10200 | ≥ 23000 | ≥ 28600 |  |
| GLLEWIFRA |  |  |  | Kd [6, 18]: 7.13 nM; Kd [7, 18]: 225 nM; Kd [8, 18]: 21.9 nM |
| VQEFIFSAL | 198 | 466 | 419 |  |
| MMNERDVSV | 63.9 | 0.27 | 0.441 |  |
| ILFQNNDINA | 3180 | 407 | 23.3 |  |
| KLLSTSNVIT | 1550 | 3350 | 2260 |  |
| AILGDTAWDF |  |  |  | Kd [12]: 3710 nM |
| IASILSLET | 318 | 7480 | 3670 |  |
| KTVKNVDII | 698 | 1790 | 607 |  |
